Experimental data as given in publication doi:10.1101/2022.08.12.503774 (bioRxiv, 2022).

Molecular target: the molecule itself
Assay: cryo-EM structure

B1: MinCys EAAT3 K269C/W441C crosslinked using Hg2+ (EAAT3-X) (natural protein, human, UniProt P43005 1-524, looked up)
chain: MGKPARKGAEWKRFLKNNWVLLSTVAAVVLGITTGVLVREHSNLSTLEKFYFAFPGEILMRMLKLIILPLIISSMITGVAALDSNVSGKIGLRAVVYYFATTLIAVILGIVLVVSIKPGVTQKVGEIARTGSTPEVSTVDAMLDLIRNMFPENLVQAAFQQYKTKREEVKPPSDPEMTMTEESFTAVMTTAISKTKTKEYKIVGMYSDGINVLGLIVFALVFGLVIGKMGEKGQILVDFFNALSDATMKIVQIIMWYMPLGILFLIAGCIIEVEDWEIFRKLGLYMATVLTGLAIHSIVILPLIYFIVVRKNPFRFAMGMAQALLTALMISSSSATLPVTFRCAEENNQVDKRITRFVLPVGATINMDGTALYEAVAAVFIAQLNDLDLGIGQIITISITATSASIGAAGVPQAGLVTMVIVLSAVGLPAEDVTLIIAVDCLLDRFRTMVNVLGDAFGTGIVEKLSKKELEQMDVSSEVNIVNPFALESTILDNEDSDTKKSYVNGGFAVDKSDTISFTQTSQF
modifications: Hg2+ crosslink between C269 and C441
B1: binds.
